Experimental data taken from the domain aggregation screens of Martell et al. (2025).

Assay: soluble fraction after stress (log2 fold change); higher = more stays soluble; pooled small domains, quantitative proteomics
Details: stress: 50 degC
How it was run: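 After stress at 50°C, the amount of each protein still soluble was measured. This was done on pooled custom libraries of small protein domains, using high-throughput quantitative proteomics. The figure given is a base-two log fold change and stands for aggregation propensity, with higher values meaning more protein stays in solution.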

Sequence	soluble fraction (log2)
HMRDPLNTGFRQTLKDIVNSLPKNELYSPGVREEYIYPKIGVTSLGMEASMVLNGLISSRRKNIELKEKN	0.447
HMLEQEDMYGYQMIETLRERSEHSFDLKAGTLYPLLHALEQKGLITARDEASAAGRPRRYYHLTDAG	-0.144
HMQSNDTAEIEAVVKEIMAANERVVNDYRSGNTKVVSFFVGQVMKATKGKANPKVVNEVLAKLLK	0.0929
HMEEGKVKRMAMDMVDAFYDKVSAMVDDNNDLGRSVVDAWDDEEENPPEYMLDDETRAILVNAGKIEPE	0.0748
HMVQMNMLELQEEMQRDRSWIIKHLFQDEYFRRKIAKFSQFPINDSGKYLFHRKSMLKFLNDYAEEIVER	-2.56
HMSKPVFQTHSVRSADSATVFDVLQTLLAGTPDARIAIDPKTNAIVAWARPETQEVIAKSIMEMEG	0.0132
HMIMTTKVSGIMFDKFNPSAILNINGMDYLVRSGDIINGYKILSIGQETVTVQYGANVYKASVG	-2.26
HMNKSEFLNELEKRIRVLEKNEIKDILAEYSQHIDMRMGSGLSEAEAIKDFGDMDDLAAEILEAY	0.08
HMVIREVNDNPVSAEELRLGDRVKVLSLGQNGEIVTLPDEKGELTVQVGILKAKVNLDDIMLI	0.0226
HMSNETKSAILNFAEKHHDFNIDDLFESLSKSMDINRSSLLWHLFKLVNSNVLIRTGRGMYAKV	-1.89
HMTDSSEILEAALKEAEDAAHEVLNGTFSVQLEPQKAYIRRLQHMLIDRMNLSSTSKGKEPYRSLLVYR	-1.11
HMSNEITVPDLSGMSLEELETILSDRSLSYEIIDSIYNSTAKKGTVSSQDPLPDAKVKSGRTIYITVVSKL	-1.5
HMIKITLPDGSVKEYKKGITPAEVAQSISEGLARNVISASYNGKTIETVTPLTTDGSLVLYTWDSPEGK	0.193
HMGIQYVASGHYARMETDAQGVSRLFPPESGAPDESDRLAALSPEVLTRLILPLGDFAPEDVEEMAVD	0.102
HMEPKIKQIVPNVVNYPVEDAKNVLVNSGLIVQIRGQGNIVYDQVPKGGAEVTRGTTVILDLNPPPGA	0.42
HMVSSYTMAIQINGKLRATHDFSVDTSQEDIKKIIINLPAIQKYINGVEIKKFIIVPQKIVNIV	-2.52
HMTQDFEPGGQVFSRGEWLTIIRVNKSNGAVSSVTTPNYSFLGYSGTMKVTPDRITDYKAPSAEEAAVAS	-0.281
HMQAPAFDYSKVQEGVTVNHKIFGDGTVSWIDKARKYIRVQFSVGEKMFTMETAFVQGFLSL	-0.348
HMSNHYETLGVEQTASVDEIKKAYRRLSLQYHPDRNTTSDAVGKFQKINDAHEILSDKQSRTEYDMQLK	0.214
HMLHVRSALMSELDGIEGIGEKRKRLLFDAFITRDAIAAATLEQLMAVKGMNRPSAEAVHKHFHG	-0.53
HMPSGRIRWFDAKKGYGFIAGDDGKDVFLPQTALPQGVRNPRKGAKVEYSVIEGNRGQVAMGVTMV	-0.0368
HMDKKEFGKRLKNLRIRNKMSQQAMADSLGYTSRSTINKIEEGINEMSYDKIVRLMELYGLSRPDLGLEPI	-0.154
HMVTLYDGFLSELRKRIPRGAELTNTLVDMLYIEREAVYRRLRGEVPFTFIEVMTVSKELGISLDNLAQA	-1.23
HMRIWTPEMIKEYIISSNGKEPLNSHYYSTNHPSIYAAAERIFGSWGNAINAAGLDYNAIRKYK	-0.00482
HMEVADAAQRKILQALQVQPLTVEQLSQELRTDTGDLLVSLSMMEITGLIRREAGNTFLAVFAPK	-0.448

Sequence	soluble fraction (log2)
HMSKPILSFVDPEKDPSHYVKRYITEETYKDWFSEHFPDYTLYEGIGITQEEYRNIVNELTKP	-0.493
HMNEIEIHINKLFGKISDSKRKQELMQEITQNLNEKVSDLVSQGQTREQAVKKAIEDFGDIDDLKDELDN	0.275
HMASIATLTVKALGGASDVVIRDKDGRIIWADRLPAGQSHRVFGHAPFNVAASHASRVQLSLLGKDVGRV	-0.719
HMTRYQHLAMLLEKRIAQGLYRNGERLPSVRSLSAEHGVSISTVQQAYYLLEQKQLIIPQSRSGYYVAPH	-4.42
HMENMSFGTKLYTWLYGKLVGSDEIGNKYYTNINDPSDLNAKRWVIFNGEIEASKIPPHWHAWLHKSIDK	-0.646
HMNTEEITYSRFQQMLEAGEISQVSIESNRILILPSEETGIEKVLYTGIINDPGLVERLNSAGVEFRAPIE	-0.00156
HMGDIFTAEDAKERIDYSGVDGIMLARGIFGNPWLIRDIREYLEYGKILHPVTQLDRVNMAIEHTRKT	0.0388
HMTHEAEDLNALRMMVRDPIFSSDEPDLQQLRGAVAHAPQFVDRFKELYNDYQRLAEFVQNSL	-0.769
HMDKWFPVSSDHKVQVGDYLRTADGLVKVEATHNEYGTFYGKIITAIHDDVVKGETYEYRIDDVQVLA	-0.0324
HMKPSKTVYTTANLNLRNGASMSAAVYTSVSRGTALATTGRTTSGWTQITHRGRTLWASSKYLTTTTPP	-2.68
HMNGPTPEEKLAVVNAEFVRQYGDEYEELELEGEELEEYYQKALNKEDFEYDIPHLPGWDEP	0.0217
HMQETPAMLAMKELPTEDEQRIYMMLQEDYDSVLLVKTIRNAFSQNPQLTRQQLLPIILTWLMT	-1.14
HMLDSPHDDLNRKIVQMLQNDGRLPYKDIAEVLSVSEGTVRNRVQRMRDAGMLNIVALIDPMAI	0.158
HMLARPTANELVKEMQRRAKEQRTELPPDAARDLLERSGQDQFLLGNEVDKLAALSGYTTITREMVAQAGT	0.186
HMTESIKRDEAIRLNNGRIYTLDAAKIGTNEYEVMLFNPRTGEEIDSAKTSTEADAILQFDRLRRMYHR	0.1
HMDRADIDAVDAEWVRATMERLGLRAKHIESHTGISKSTLSILLNGHRPLTRWHKIAFYYLFKHIEF	-2.68
HMPYIVNHIHLKSEDPKITADWFVKAFNFEIVSDVVRHFGDRFIVTKAEGGMTINISGVRDGEEL	-0.0655
HMNEIDLEAAKRIALQNAGVESADAAFTKAQLDYDDGVAEYEIEFVAGSTKYEYEISAANGTVLKSSKESV	-0.0497
HMQGEVVTNRSVIDMSRAGLSADIIRAKILRSDTNFDVTAKALIELKESGVPDDIIALMLERADS	0.128
HMNDTPPELRAALDLLGLKWPLASVELRARYKDLAKQHHPDATGGDKQAEERLKDINRAYSLLKHRLAKQ	-0.07
HMGISQAQAMQALRKLIEEEDKHTPLSDQTLMERLKAAGIPLARRTIAKYRESLGIPSAAQRK	-0.109
HMLVGRDPQALILGSMPSEKSLEEDEYYAHPRNRFWSLMNWLLAGNKTRPAYKTGIEILSSHGIALWV	-0.263
HMGASIQITVNNTPVMLKNKTHYTLVDVLDFYPFDLSKMGGTELYTAINGVKSGFTDPVHANDSIEIYWI	-0.148
HMERLKKYLDDVRTFLPGTNPKKVDEILREIESHVLERAEREHGEVNDNAVAMSIKEYGSPEEVAARYYEG	0.194
HMIEGEQVRLLRLLERQEGGMLPLGDKSPASDILLLTGMSKKTFKMAVGALYKAQMITMTPTSIKLVK	-0.684

Sequence	soluble fraction (log2)
HMSDLFKYSPYKTLTEEQYKITYQIIERLKTDLSNGIPRISIIDGGAGTGKSILGIFLLKLLVDAQN	0.343
HMDGVNRDKIEYRLDDLYYLKGSDAPYTGKVFEEWSGQQRVETNYIDGKLDGLSESWHENGQKASEVNY	0.345
HMLTKGDRQSIRDSIIYMVGNAPRTLDYIVAESRYSEEDVIEAVRSLLSSHILSIDDSDMISLTRK	-0.448
HMELSVTDRTRQIRHILKEKGRVEFTSLFEELTKPYVIVTFLSVLEMSKNNELMITQDKTFGSITLEMKG	-0.569
HMDTIRINSGSTVKEVAEYLGIPVPEVIKKLMSMGELATLTKTLSDDHIEVLAEEFEKKIKIVHVGEEAD	0.0343
HMSSLEQVYPNPVSSILKLNSFIKNYKILNATGHEVLKGSGNTINVGKLPSGSYFLITSENYSIKFIK	-1.24
HMPGLPLWAFSTRGSAIHTGASFRDGDGLLFGPESRGLPDWLLEEVGQDRVLRLPMRPGSRSLNLSNAV	-0.304
HMAIGDYYINASALNVRSGEGTNYRIIGALPQGQKVQVISENSGWSKINYNGQTGYIGTRYLSKTPV	-0.00322
HMLMRKAEVGVESLNLRHGPGTQYKVLEILPGGKSLHYLAEPRRGWVRVTTEEGTTGWTFLKFLKPE	-1.96
HMAVGDMISKLRTAANMSQEQFAELFGVTRQSVQKWENSFSVPELEKLIKISKYFDVSLDALVLRSDARVT	-1.06
HMAKPAALLFEHRFDGMAEMRFRENIVKNDDGSYTYDEYFLSMLDRAGLEKIVQENMEVWIAYAKQ	-2.17
HMFVEKDSIINKGNNSYNFVITDNNNKVLVEYNGLLPDLFKEEQGVVIEGRLKSDFIIHAFTVF	-0.209
HMLPKLAEEYAIMEIRGKGENLTAKLINKGGDSFMVRNGTVLQTGHRIDEITQTYVRAEINGMKDYLYFA	0.417
HMKKEDFLEILRDYLKKGFSEDEVMDILRDYEEYFVDGIIEGKSEIEIIQSLGSPKEIANELLAES	-0.202
HMENQGEDMRQQVKALVNADKTNITKLATATGYSRSTISMYLAGNYKGDVEAVERRLEEYMKTQG	-0.0136
HMSNIQLAANLQRLRKDHHFTQTQFSKKLNISRQAYSNYETGKRIPDLDIIIRIANIYHISLENLL	-0.389
HMIISMKKTATKEQIAHVRELIEGMGYKAHMSVGAERVIFGAIGDERGKERLVSLEAQPGVEKVIPIL	0.255
HMKYRLLGENLQTIRKARGMKQQELADQIGINMQSLSKIERGLNYPTFETLEKIMNALGITPNELLSG	-0.461
HMDADGEPIKLDQIGISHLSFTVADVKSLGEELVAKGVKLAAPMEAFTSPEGRISSIFVYDPDGILLQFDD	-0.104
HMGIAEAKRVIVRTLHDVLGPEADFLTEKIDVAQTAAELRVHAEKYRDMLVDMGKPKKSAAFWEAFEAALP	-0.0544
HMALPRYFFRTRENGAVLFKTPVNNHQNRLEMHQIAAINIRNETVKPLGDTVLTDEETELIADWMRERKTV	-0.72
HMLNMTLGDRIRSRREELRMSQEELATRLGYKSRSTIAKIESGENDLTQSKIVAFAEALSTTARWLLDY	-1.04
HMAQLPADMSRVKSADVSDAQLREFVQKAQASGQTETQLFREFSRRGMPTNEINILRSRMVGLQNN	0.0388
HMGPAYQTQRQEAFAALSEIAAKNPQLMQVAGDLVFRAADFPMADELADRLAKTLPPQLQDKKGQP	-0.464
HMGTTMLEVPNFVGEVFKEIDPEKYPNLRLVDSDYTYSNEYEAGKVISQDPVARTQVAEGSTVKLVIS	0.133
